The values that follow come from patent publication US10994047B2, “Peptide dendrimers comprising fibrinogen-binding peptides” (HAEMOSTATIX LIMITED, priority 2014, dated 2021).

Test [1] deals with T1, fibrinogen hole 'a' and hole 'b' (Homo sapiens, UniProt P02675+P02679).
T1 sequence (P02679 27-433 limits assumed): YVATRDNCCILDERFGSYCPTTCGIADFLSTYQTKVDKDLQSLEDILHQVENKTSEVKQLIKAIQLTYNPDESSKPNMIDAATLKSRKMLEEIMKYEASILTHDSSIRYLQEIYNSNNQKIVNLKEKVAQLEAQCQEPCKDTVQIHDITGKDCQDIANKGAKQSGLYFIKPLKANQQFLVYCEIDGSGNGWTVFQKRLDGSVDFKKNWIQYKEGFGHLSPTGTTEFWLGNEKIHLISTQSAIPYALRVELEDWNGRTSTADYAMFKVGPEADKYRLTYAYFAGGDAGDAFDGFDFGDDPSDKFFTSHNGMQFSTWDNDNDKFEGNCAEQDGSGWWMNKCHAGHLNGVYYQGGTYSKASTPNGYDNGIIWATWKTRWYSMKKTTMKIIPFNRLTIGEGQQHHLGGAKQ
T1 sequence (P02675 31-491): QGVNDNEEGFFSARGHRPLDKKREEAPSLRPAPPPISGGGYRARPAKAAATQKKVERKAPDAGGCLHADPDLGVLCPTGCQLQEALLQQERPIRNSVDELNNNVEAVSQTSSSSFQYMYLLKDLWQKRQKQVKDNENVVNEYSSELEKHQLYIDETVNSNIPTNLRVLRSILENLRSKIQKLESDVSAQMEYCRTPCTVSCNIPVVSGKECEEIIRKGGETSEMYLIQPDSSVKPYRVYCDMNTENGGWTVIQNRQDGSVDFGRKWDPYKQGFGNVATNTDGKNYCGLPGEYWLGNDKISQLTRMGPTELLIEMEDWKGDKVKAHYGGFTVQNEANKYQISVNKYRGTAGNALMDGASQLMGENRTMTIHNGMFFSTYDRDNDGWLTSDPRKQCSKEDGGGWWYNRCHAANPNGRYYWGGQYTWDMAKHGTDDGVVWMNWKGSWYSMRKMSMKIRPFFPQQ
T1 sequence (P02671 20-629 partner limits assumed): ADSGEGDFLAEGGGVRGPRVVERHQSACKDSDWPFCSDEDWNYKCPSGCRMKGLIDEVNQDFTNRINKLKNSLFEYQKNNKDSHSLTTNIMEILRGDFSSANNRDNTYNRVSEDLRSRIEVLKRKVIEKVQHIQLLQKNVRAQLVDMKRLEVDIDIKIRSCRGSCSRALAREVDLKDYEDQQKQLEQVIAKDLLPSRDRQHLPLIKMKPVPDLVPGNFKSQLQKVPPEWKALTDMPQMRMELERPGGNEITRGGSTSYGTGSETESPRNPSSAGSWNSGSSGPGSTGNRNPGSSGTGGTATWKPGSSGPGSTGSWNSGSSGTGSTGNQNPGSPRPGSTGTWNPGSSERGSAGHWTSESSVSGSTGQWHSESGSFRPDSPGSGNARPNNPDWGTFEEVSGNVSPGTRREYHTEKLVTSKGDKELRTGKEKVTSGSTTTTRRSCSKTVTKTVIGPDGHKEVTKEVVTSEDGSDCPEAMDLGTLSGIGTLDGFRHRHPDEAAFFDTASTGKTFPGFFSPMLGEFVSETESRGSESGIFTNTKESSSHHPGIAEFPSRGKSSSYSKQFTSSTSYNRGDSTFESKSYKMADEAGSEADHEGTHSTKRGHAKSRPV
Particulars: cited from earlier work.

In test [2] the target is T2, purified human fibrinogen (Homo sapiens, UniProt P02675+P02679).
T2 sequence (P02679 27-433 limits assumed): T1 sequence (P02679 27-433 limits assumed)
T2 sequence (P02675 31-491): T1 sequence (P02675 31-491)
T2 sequence (P02671 20-629 partner limits assumed): T1 sequence (P02671 20-629 partner limits assumed)
In words: Copolymerisation of peptide dendrimer with purified fibrinogen, clotting time on KC4 Delta coagulation analyser. The format is biochemical. How it is done: The ability of Peptide Dendrimer No. 12 to polymerise fibrinogen was assessed. 30 μl of dendrimer in solution, at concentration ranging from 0.005-2 mg/ml, was added to 100 μl purified human fibrinogen at 3 mg/ml (the level of fibrinogen found in the blood). Polymerisation of fibrinogen was analysed using a Sigma Amelung KC4 Delta coagulation analyser.
The ability of Peptide Dendrimer Nos. 4, 5, 10, 11, and 12 to copolymerise with fibrinogen was assessed using the same method described in Example 2. The concentration of each dendrimer was varied from 0.005-0.5 mg/ml.
The ability of the dendrimers to copolymerise with fibrinogen was assessed using the same method described in Example 2, for a concentration of each dendrimer ranging from 0.005-0.5 mg/ml.

Test [3] deals with T3, fibrinogen in human plasma (Homo sapiens, UniProt P02675+P02679).
T3 construct: from tissue; host or cells: human plasma
T3 sequence (P02679 27-433 limits assumed): T1 sequence (P02679 27-433 limits assumed)
T3 sequence (P02675 31-491): T1 sequence (P02675 31-491)
T3 sequence (P02671 20-629 partner limits assumed): T1 sequence (P02671 20-629 partner limits assumed)
The experiment in a line: Polymerisation of fibrinogen in human plasma, clotting time. Particulars: 37° C.; for ability to polymerise fibrinogen in human plasma: 30 μL dendrimer 0.25 mg/ml added to 100 μL human plasma, FIG. 7. The test is classed as biochemical. How it is done: 30 μL of each dendrimer (at a concentration of 0.25 mg/ml) was added to 100 μL human plasma at 37° C., and polymerisation of fibrinogen was determined using a Sigma Amelung KC4 Delta coagulation analyzer.

For a further test, the target named is T4, human fibrinogen (Homo sapiens, UniProt P02675+P02679).
T4 sequence (P02679 27-433 limits assumed): T1 sequence (P02679 27-433 limits assumed)
T4 sequence (P02675 31-491): T1 sequence (P02675 31-491)
T4 sequence (P02671 20-629 partner limits assumed): T1 sequence (P02671 20-629 partner limits assumed)
In words: Clotting activity of dendrimers extracted from gamma-irradiated gelatin paste. The format is biochemical. Particulars: 37° C. How it is done:
2 ml of solution of Peptide Dendrimer No. 12 or 13 was mixed with SURGIFLO Haemostatic Matrix (a hydrated flowable gelatin matrix) to form a paste of each peptide. Each paste was sterilised by irradiation with ^60Co gamma rays at a dose of 30 kGy, and then stored at room temperature. Samples of the sterilised pastes were used for testing after storage for two and four weeks.
After storage, peptide dendrimers were extracted from each paste using 10 mM HEPES buffer. 30 μL of each extract (with a peptide concentration of about 0.25 mg/ml) was added to 100 μL of human fibrinogen at 3 mg/ml, and the ability of each dendrimer to polymerise fibrinogen (the ‘clotting’ activity) at 37° C. was determined using a Sigma Amelung KC4 Delta coagulation analyser. The polymerisation activity of non-irradiated control samples was also determined.

Setting [4] is: dendrimer 0.005-0.5 mg/ml, fibrinogen 3 mg/ml, FIG. 2 and 3.

Where no end group is shown, it is not given here.

Consider “GHRPY- (SEQ ID NO: 11) (listed as Homo sapiens)”, for which the “binding preference for hole 'a' or hole 'b' of fibrinogen” value (from here on “binding preference”) in test [1] is “binds strongly and preferentially to the ‘b’ hole of fibrinogen”.
Take “GPRPG (SEQ ID NO: 15) ((5)..(5) Carbox-terminal end may comprise an amide group; listed as Homo sapiens)”: in test [1], the “binding preference” value was “binds to hole ‘a’ and hole ‘b’ of fibrinogen, but with some preference for hole ‘a’”.
Turning to “Peptide Dendrimer No. 10: three-branch dendrimer, three GPRPG peptides each attached by carboxy-terminal end to the branched core (also: three copies of chain 1 attached by C-termini to a branched core; listed as Homo sapiens)”, the “clotting times compared between dendrimers” value in test [2] (concentrations below ~0.125 mg/ml dendrimer, FIG. 2) is recorded as “faster clotting times than dendrimer no. 4”. Besides, the “ability to polymerise fibrinogen in human plasma” value (“ability to polymerise fibrinogen” for short) in test [3] is given as “able to polymerise fibrinogen in human plasma”.
As for “GPRPFPA (listed as Homo sapiens) [GPRPFPA (SEQ ID NO: 3)]”, the “binding preference” value in test [1] is listed as “binds with high preference for hole ‘a’ in fibrinogen”.
With “Peptide Dendrimer No. 9: three-branch dendrimer: two peptides GPRPFPA, third APFPRPG attached by its amino-terminal end, carboxy-terminal amide (chain 2 APFPRPG-NH2; also: three-branch dendrimer core: two GPRPFPA, APFPRPG attached by its amino-terminal end; listed as Homo sapiens)”, in test [2] (setting [4]), the “ability to copolymerise with fibrinogen (clotting time)” value (“ability to copolymerise” below) is listed as “very active in copolymerising with fibrinogen”. Also, the “ability to polymerise fibrinogen” value in test [3] is “not able to polymerise fibrinogen in human plasma”.
For the substance GPRP- (SEQ ID NO: 1), the “binding preference” value in test [1] is “binds strongly and preferentially to the ‘a’ hole of fibrinogen”.
Consider “Peptide Dendrimer No. 8: three-branch dendrimer: two peptides GPRPG, third APFPRPG attached by its amino-terminal end, carboxy-terminal amide (chain 2 APFPRPG-NH2; also: three-branch dendrimer core: two GPRPG, APFPRPG attached by its amino-terminal end; listed as Homo sapiens)”, for which the “ability to copolymerise” value in test [2] (setting [4]) is “able to copolymerise with fibrinogen”. The “ability to polymerise fibrinogen” value in test [3] is on record as “not able to polymerise fibrinogen in human plasma”.
As to “Peptide Dendrimer No. 12: five-arm dendrimer, GPRPG- peptides; branched core with five consecutive lysine residues linked through side chains (chain KKKKK; also: five-arm dendrimer of GPRPG on core of five lysines linked through side chains, attachment places not given here)”, the “Clotting activity, Non-irradiated control” value with human fibrinogen (extract from gelatin paste, about 0.25 mg/ml peptide, human fibrinogen 3 mg/ml, not irradiated) was determined as 1 s. In addition, the “Clotting activity, Storage for 2 weeks post irradiation” value with human fibrinogen (paste irradiated 30 kGy 60Co gamma, stored 2 weeks at room temperature, extract about 0.25 mg/ml, fibrinogen 3 mg/ml) stood at 1 s. Further, the “Clotting activity, Storage for 4 weeks post irradiation” value with human fibrinogen (paste irradiated 30 kGy 60Co gamma, stored 4 weeks at room temperature, extract about 0.25 mg/ml, fibrinogen 3 mg/ml) worked out at 1 s. In test [2] (dendrimer 0.005-2 mg/ml, 100 μl purified human fibrinogen 3 mg/ml, FIG. 1), the “ability to copolymerise” value was “able to copolymerise with fibrinogen almost instantaneously”. In addition, the clotting result in test [2] (dendrimer range ~0.02-0.5 mg/ml, FIG. 2) is “almost instantaneous clotting”. Besides, the “ability to polymerise fibrinogen” value in test [3] was “able to polymerise fibrinogen in human plasma”. Also, the “clotting time in human plasma” value in test [3] (dendrimer 0.25 mg/ml, human plasma) is listed as “less than one”.
